Test: yeast display, Sf9 membrane polyspecificity reagent, FACS + sequencing; frameworks hold sequencing errors
How it was run: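 Galactose induction of a Saccharomyces cerevisiae BJ5465 synthetic nanobody display library ran 36–48 hours. The cells were then stained for 1 hour at 4 °C with 10% biotinylated, detergent-solubilized Sf9 membrane reagent, pulled down on streptavidin microbeads and FACS-sorted into low and high (top ~1%) gates on expression and reagent-binding fluorescence. Labels for polyreactivity follow the gate of origin.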

Row | Sequence | polyreactivity (PSR sort gate)
1 | QVQLVESGGGLVQAGGSLRLSCAASGYTFAGNAMGWYRQAPGKERELVAAISRSGGRTYYAVSVKGRFTISRDNAKNTVYLQMNSLKPEDTAVYYCAAYFPRTLFEFGYWGQGTQVTVSS | high polyreactivity
2 | QVQLVESGGGLVQAGGSLRLSCAASGYTFAGNAMGWYRQATGKERELVAAISRSGGRTYYADSVKGRFTISRDNAKNTVYLQMNSLKPEDTAVYYCAAYFPRTLFEFGYWGQGTQVTVSS | high polyreactivity
3 | QVQLVESGGGLVQAGGSLRLSCAASGYTFDAYAMGWYRQAPGKERELVAAITTNGGSTYYADSVKGRFTISRDNAKNTVYLQMNSLKPEDTAVYYCNAEYWYEGRYPYDYWGQGTQVTVSS | low polyreactivity
4 | QVQLVESGGGLVQAGGSLRLSCAASGYTFDRYAMGWYRQAPGKERELVAVISRSGATTYYADSVKGRFTISRDNAKNTVYLQMNSLKPEDTAVYYCAARNPSGKGRYDYWGQGTQVTVSS | high polyreactivity
5 | QVQLVESGGGLVQAGGSLRLSCAASGYTFDTKAMGWYRLAPGKERELVAAISRIGGRTYADSVKGRFTISRDNAKNTVYLQMNSLKPEDTAVYYGAADTTWYPYGYDSWGQGTPVTVSS | low polyreactivity
6 | QVQLVESGGGLVQAGGSLRLSCAASGYTFESYTMGWYRQAPGKEREFVAVISSSDTSTSYADSVKGRFTISRDNAKNTVYLQMNSLKPEDTAVYYCAAYSSPYYITYYWYNYDYWGQGTQVTVSS | low polyreactivity
7 | QVQLVESGGGLVQAGGSLRLSCAASGYTFEVYAMGWYRQAPGKERELVADITTRTGNTYYADSVKGRFTISRDNAKNTVYLQMNSLKPEDTAVYYCAADLQRYWWWYEYWGQGTQVTVSS | high polyreactivity
8 | QVQLVESGGGLVQAGGSLRLSCAASGYTFEYYAMGWYRQAPGKERELVAAISWSGGDTYYADSVKGRFTISRDNAKNTVYLQMNSLKPEDTAVYYCNADLYNYFYYANWYGAYDYWGQGTQVTVSS | low polyreactivity
9 | QVQLVESGGGLVQAGGSLRLSCAASGYTFFYMGSYRQAPGKEREFVAVITYSGGSTYYADSVKGRFTISRDNAKNTVYLQLNSLKPEDTAVYYCAAAVWHYGRPGYLDSGYDYWGQGTQVTVSS | low polyreactivity
10 | QVQLVESGGGLVQAGGSLRLSCAASGYTFGAYAMGWYRQAPGKERELVAAIPVRAGRTYYADSVKGRFTISRDNAKNTVYLQMNSLKPEDTAVYYCARRNPLGGNEHDYWGQGTQVTVSS | low polyreactivity
11 | QVQLVESGGGLVQAGGSLRLSCAASGYTFGDYAMGWYRQAPGKERELVASITQTGGSTYADSVKGRFTISRDNAKNTVYLQMNSLKPEDTAVYYCNARYPWWESLRQTDRGKGFDYWGQGTQVTVSS | low polyreactivity
12 | QVQLVESGGGLVQAGGSLRLSCAASGYTFGVYVMGWYRQAPGKERELVAAISGSTYYADSVKGRFTISRDNAKNTVYLQMNSLKPEDTAVYYCNADYYRSVLIIGVYEYDYWGQGTHVTVSS | low polyreactivity
13 | QVQLVESGGGLVQAGGSLRLSCAASGYTFGYYAMGWYRQAPGKERELVAAISYSGGTTYYADSVKGRFTISRDNAKNTVYLQMNSLKPEDTAVYYCNKRYWVRTGKVSSYDYWGQGTQVTVSS | high polyreactivity
14 | QVQLVESGGGLVQAGGSLRLSCAASGYTFHGYAMGWYRQAPGKERELVAVITQRGGSTSYADSVKGRFTISRDNAKNTVYLQMNSLKPEDTAVYYCEYYYWGQGTQVTVSS | low polyreactivity
15 | QVQLVESGGGLVQAGGSLRLSCAASGYTFHGYAMGWYRQAPGKERELVAVITQRGGSTYYADSVKGRFTISRDNAKNTVYLQMNSLKPEDTAVYYCAARYAGPSPTDTGHDYWGQGTQVTVSS | low polyreactivity
16 | QVQLVESGGGLVQAGGSLRLSCAASGYTFHGYAMGWYRQAPGKESELVAVITQRGGSTSYADSVKGRFTISRDNAKITVYLQMNSLKPEDTAVYYCNASAWLVVARTRYGYWGQGTQVTVSS | low polyreactivity
17 | QVQLVESGGGLVQAGGSLRLSCAASGYTFHGYSMGWYRKAPGKERELVAVITQRGGSTSYADSVKGRFTISRDNAKNTVYLQMNSLKPEDTAVYYCNASAWLVVARTRYGYWGQGTQVTVSS | low polyreactivity
18 | QVQLVESGGGLVQAGGSLRLSCAASGYTFHHNTMGWYRQAPGKERELVATISDGGSTNYADSVKGRFTISRDNAKNTVYLQMNSLKPEDTAVYYCAALYQQFQSALVPYFDVIEEDYWGQGTQVTVSS | low polyreactivity
19 | QVQLVESGGGLVQAGGSLRLSCAASGYTFIGYAMGWYRQAPGKERELVAAISWSVGRTYYADSVKGRFTISRDNAKNTVYLQMNSLKPEDTAVYYCNAVSSFYYCYDYWGQVTQVTVSS | low polyreactivity
20 | QVQLVESGGGLVQAGGSLRLSCAASGYTFINYAMGWYRQAPGKERELVAAITSTGSRTYYADSVKGRFTITRDNAKNTVYLQMNSLKPEDPAVYYCAAQVDRKYRWFNSWGQGTQVNVSS | high polyreactivity
21 | QVQLVESGGGLVQAGGSLRLSCAASGYTFKAYAMGWYRQAPGKERELVAGISRSGGSTYYADSVKGRFTISRDNAKNTVYLQMNSLKPEDTAVYYCAADSFSWETVVPSVFEFDYWGQGTQVTVSS | low polyreactivity
22 | QVQLVESGGGLVQAGGSLRLSCAASGYTFKAYAMGWYRQAPGKERELVGGISRSGGSTYYADSVKGRFTISRDNAKNTVYLQMNSLKPEDTAVYYCAADSFSWETVVPSVFEFDYWGQGTQGTVSS | low polyreactivity

Row | Sequence | polyreactivity (PSR sort gate)
23 | QVQLVESGGGLVQAGGSLRLSCAASGYTFKTYAMGWYRQAPGKERELVAAIRTSGGSTYYADSVKGRFTISRDNAKNTVYLQMNSLKPEDTAVYYCAAAFNYYGSLYDYWGQGTQVTVSS | high polyreactivity
24 | QVQLVESGGGLVQAGGSLRLSCAASGYTFLAYAMGWYRQAPGKERELVAAISRSGVSTYYADSVKGRFTISRDNAKNTVYLQMNILKPEDTAFYYCAKGVRYQQYHIMYYWGQGTQVTVSS | high polyreactivity
25 | QVQLVESGGGLVQAGGSLRLSCAASGYTFLVYTKGWYRQAPGKERELVATISWSGTSTDYADSVKGRFTISRDNAKNTVYLQMNSLKPEDTAVYYCNAKYPRAYLYGYKLFDSWGQGTQVTVSS | high polyreactivity
26 | QVQLVESGGGLVQAGGSLRLSCAASGYTFNWYAMGWYRQAPGKERELVAAISWRSGRTYYADSVKGRFTISRDNAKNTVYLQMNSLKPEDTAVYYCAVTTTSGAPGGSYYYWGQGTQVTVSS | high polyreactivity
27 | QVQLVESGGGLVQAGGSLRLSCAASGYTFNYYAMGWYRQAPGKERELVAAISASSDSTYYADSVKGRFTISRDNAKNTVYLQMNSLNPEDTAVYYCAAVSGRYRIYRYDYWGQGTQVTVSS | low polyreactivity
28 | QVQLVESGGGLVQAGGSLRLSCAASGYTFPDYAMGWYRQAPGKERELVADITSAGNTYYADSVKGRFTISRDNAKNTVYLQMNSLKPEDTAVYYCNKDDLWENGISYSSPYRLDHWGQGTQVTVSS | low polyreactivity
29 | QVQLVESGGGLVQAGGSLRLSCAASGYTFPIYAMGWYRQAPGKERELVATISSGGRTNYADSVKGRFTISRDNAKNTVYLQMKSLKPEDTAVSYCNARRLGWHALYLYDYWGQGTQVTVSS | high polyreactivity
30 | QVQLVESGGGLVQAGGSLRLSCAASGYTFPIYAMGWYRQAPGTERELVAGISKNGGSTYYADSVKGRFTISRDNAKNTVYLQMNSLKPVDTAVYYCNASAWGRPYYLGSYFVYPGYEYWGQGTEVTVSS | low polyreactivity
31 | QVQLVESGGGLVQAGGSLRLSCAASGYTFPLYAMGLYRQAPGKEWELVADINIGGASTYYADSVKGRFTISRDHAKNTVYLQMNSLKPEDTAVYYCAKEYYDGYFPTFDYDYWGQGTQVTGSS | low polyreactivity
32 | QVQLVESGGGLVQAGGSLRLSCAASGYTFPLYAMGWYRQAPGKERELVATISSSGSRTYYADSVKGRFTISRDNAKNTVYLQMNSLKPEDTAVYYCAARYRAYVKLTSYDWGQGTQVTVSS | high polyreactivity
33 | QVQLVESGGGLVQAGGSLRLSCAASGYTFPQYAMGWYRQAPGKERELVAAITRRGGSTYYADSVKGRFTISRDNAKNTVYLQMNSLKPEDTAVYYCASDSYPYSLGGDYWGQGTQVTVSS | high polyreactivity
34 | QVQLVESGGGLVQAGGSLRLSCAASGYTFPSNAMGWYRQAPGKERELVAAISSGGRTNYADSVKGRFTISRDNAKNTVYLQMNSLKPEDTGVYYCNADGGPCYPRAYDYWGQGTQVTVSS | low polyreactivity
35 | QVQLVESGGGLVQAGGSLRLSCAASGYTFQGYAMGWYRQAPGKERELVAGISRSGGRTYYADSVKGRFTISRDNAKNTVYLQMNSLKPEDTAVYYCAASYQVRYDYWGQGTQVTVSS | high polyreactivity
36 | QVQLVESGGGLVQAGGSLRLSCAASGYTFQKYGMGWYRQAPGNERELVAAITRSSGNTYYADSVKGRFTISRDNAKNTVYLQMNSLKPEDTAVDYCAAYYWGGVKYNYWGQGTQVTVSS | high polyreactivity
37 | QVQLVESGGGLVQAGGSLRLSCAASGYTFQYYAMGWYRQAPGKERELVAAISRGVGSTTYYADSVKGRFTISRDNAKNTVYLQMNSLKPEDTAVYYCNHDFLGDEYDYWGQGTQVTVSS | high polyreactivity
38 | QVQLVESGGGLVQAGGSLRLSCAASGYTFRGYAMGWYRQAPGKEREFVAAMNWSDGSTYYADSVKGRFTISRDNPKNTVYLQMNSLKPEDTAVYYCNADQYYRVPDNYWGQGTQVTVSS | low polyreactivity
39 | QVQLVESGGGLVQAGGSLRLSCAASGYTFRHYVMGWYRQAPGKERELVAAITYSGGSTYYADSVKGRFTISRDNAKNTVYLQMNSLKPEDTAVYYCAARRRRSDPYDFWGQGTQVTVSS | high polyreactivity
40 | QVQLVESGGGLVQAGGSLRLSCAASGYTFRYNAMGWYRQAPGKERELVAAISSSGGRTYYADSVKGRFTISRDYAKNTVYLQMNSLKPEDTAVYYCAADSSVKYWRYQAAYDYWGQGTQVTVSS | high polyreactivity
41 | QVQLVESGGGLVQAGGSLRLSCAASGYTFSAYAMGWYRQAPGKERELVAVINRSGVRTYYADSVKGRFTISRDNAKNTVYLQMNSLKPEDTAVYYCAADYRNTVLEMDYWGQGTQVTVSS | high polyreactivity
42 | QVQLVESGGGLVQAGGSLRLSCAASGYTFSGYAMGWYRQAPGKERELVAAISKRGGSTYYADSVKGRFTISRDNAKNTVYLQMNSLKPEDTAVYYCAKRSGYRSHYGYWGQGTQVTVSS | high polyreactivity
43 | QVQLVESGGGLVQAGGSLRLSCAASGYTFSNNAMGWYRQAPGKERELFPTINSGGSTNYADSVKGRFTISRDNAKNTVYLQMNSLKPEDTAVYYCAAREDLYLYYNGQRVQYDYWGQGTQVTVSS | low polyreactivity

From the nanobody polyreactivity screen of Harvey et al. (2022)
